Measurements published in patent US6602700B1, “Phenolic acid esterases, coding sequences and methods” (University of Georgia Research Foundation, Inc., priority 1998, dated 2003).

B1: FAE227: XynZ amino acids 20-247; expressed but inactive truncation (protein, listed as Clostridium thermocellum)
chain: LVTISSTSAASLPTMPPSGYDQVRNGVPRGQVVNISYFSTATNSTRPARVYLPPGYSKDKKYSVLYLLHGIGGSENDWFEGGGRANVIADNLIAEGKIKPLIIVTPNTNAAGPGIADGYENFTKDLLNSLIPYIESNYSVYTDREHRAIAGLSMGGGQSFNIGLTNLDKFAYIGPISAAPNTYPNERLFPDGGKAAREKLKLLFIACGTNDSLIGFGQRVHEYCVANN
B2: FAE: C. thermocellum XynZ amino acids 20-286 expressed in E. coli; feruloyl esterase domain without linker or CBD (protein, listed as Clostridium thermocellum)
chain: LVTISSTSAASLPTMPPSGYDQVRNGVPRGQVVNISYFSTATNSTRPARVYLPPGYSKDKKYSVLYLLHGIGGSENDWFEGGGRANVIADNLIAEGKIKPLIIVTPNTNAAGPGIADGYENFTKDLLNSLIPYIESNYSVYTDREHRAIAGLSMGGGQSFNIGLTNLDKFAYIGPISAAPNTYPNERLFPDGGKAAREKLKLLFIACGTNDSLIGFGQRVHEYCVANNINHVYWLIQGGGHDFNVWKPGLWNFLQMADEAGLTRDGN
B3: FAE287: XynZ amino acids 20-307; lacks the CBD but contains the proline rich linker (protein, listed as Clostridium thermocellum)
chain: LVTISSTSAASLPTMPPSGYDQVRNGVPRGQVVNISYFSTATNSTRPARVYLPPGYSKDKKYSVLYLLHGIGGSENDWFEGGGRANVIADNLIAEGKIKPLIIVTPNTNAAGPGIADGYENFTKDLLNSLIPYIESNYSVYTDREHRAIAGLSMGGGQSFNIGLTNLDKFAYIGPISAAPNTYPNERLFPDGGKAAREKLKLLFIACGTNDSLIGFGQRVHEYCVANNINHVYWLIQGGGHDFNVWKPGLWNFLQMADEAGLTRDGNTPVPTPSPKPANTRIEAEDYD

Assays:
[1] = Feruloyl esterase activity of C. thermocellum enzymes, HPLC assay, FAXX as substrate; format: biochemical; conditions: E. coli cell free extracts
Procedure: (§1) Unless otherwise noted, all C. thermocellum enzyme assays were performed at 60° C. in 50 mM Na-citrate buffer, pH 6.0. One unit of enzyme activity was defined as the amount of enzyme that released 1 μmol of product min-1, and specific activity is given in units per milligram of protein. Feruloyl esterase activity was measured using a modified version of the assay described by Borneman et al. [Borneman etal. (1990) Anal. Biochem. 190:129-133]. The appropriately diluted protein sample (25 l) was added to 400 μl of buffer plus 8 mM of substrate. Samples were incubated at 60° C. for 5 min. and the reaction was stopped by adding 25 μl of 20% formic acid. Release of ferulic acid was measured via HPLC using a mobile phase of 10 mM Na-formate pH 3 and 30% (vol/vol) methanol. For routine assays, FAXX and FAX3 purified from wheat bran were used as substrates [Borneman et al. (1990) supra]. Ethyl-ferulate and ethyl-p-coumarate esters were a gift from D. E. Akin (USDA, Athens, Ga.). The hydrolysis of these (10 mM) were determined similarly to that of FAXX, but the HPLC analyses were performed with 50% methanol. HPLC runs were with a Hewlett Packard 1100 Series instrument equipped with an autosampler and diode array detector. Ferulic acid and p-coumaric acid were used as standards. To determine the amount of feruloyl and p-coumaroyl groups released from plant cell walls, wheat bran and Coastal Bermuda grass were ground in a Wiley mill to pass through a 250 μm screen. Plant samples of ten milligram were incubated for one hour in 400 μl of 50 mM Na-citrate buffer pH, 6.0 plus 25 μl of enzyme. After the addition of 25 μl of 20% formic acid to stop the reaction, the samples were centrifuged at 16,000×g in a microfuge and then assayed for FA and pCA by HPLC.

[2] = Storage stability of purified XynZ-derived FAE at 4° C.; format: physicochemical; conditions: 4° C. in elution buffer (50 mM Tris pH 7.5, 5% glycerol)
Procedure: Alternatively, the 100,000×g supernatant after the heat treatment was concentrated to a volume of 2 ml with a Centricon 10 concentrator (Amicon, Millipore, Bedford, Mass.) and then applied to a TSK3000SW column (Tosohaas) which was run with 50 mM Tris pH 7.5 and 5% glycerol as solvent.

[3] = C. thermocellum enzyme stability experiments (heat incubation, residual activity); format: physicochemical
Procedure: Purified enzyme at a concentration of 13 μg/nMl was placed in a water bath at the appropriate temperature and incubated at intervals of one hour. Enzyme aliquots (25 μl) were removed and assays were performed in triplicate using FAX3 as a substrate as described above. FAE/CBD was tested at temperatures of 500, 600, and 70° C. while FAE was tested at 70°, 80° and 90° C.

[4] = Routine feruloyl esterase assay of purified recombinant XynZ polypeptides (purification tables); format: biochemical; conditions: purified preparation after heat treatment and TSK 3000SW gel filtration
Procedure: as §1, with “To determine the amount of feruloyl and p-coumaroyl groups released from plant cell walls, wheat bran and Coastal Bermuda grass were ground in a Wiley mill to pass through a 250 μm screen. Plant samples of ten milligram were incubated for one hour in 400 μl of 50 mM Na-citrate buffer pH, 6.0 plus 25 μl of enzyme. After the addition of 25 μl of 20% formic acid to stop the reaction, the samples were centrifuged at 16,000×g in a microfuge and then assayed for FA and pCA by HPLC.” left out

[5] = Cellulose binding of XynZ constructs; conditions: purified from recombinant E. coli
[6] = Feruloyl esterase activity of C. thermocellum enzymes, HPLC assay, FAX3 as substrate; format: biochemical; conditions: pH 6.0, 60° C.
Procedure: as §1, with “To determine the amount of feruloyl and p-coumaroyl groups released from plant cell walls, wheat bran and Coastal Bermuda grass were ground in a Wiley mill to pass through a 250 μm screen. Plant samples of ten milligram were incubated for one hour in 400 μl of 50 mM Na-citrate buffer pH, 6.0 plus 25 μl of enzyme. After the addition of 25 μl of 20% formic acid to stop the reaction, the samples were centrifuged at 16,000×g in a microfuge and then assayed for FA and pCA by HPLC.” left out

Row | Molecule | Feruloyl esterase activity (hydrolysis of FAXX) of construct expressed in E. coli [1] | Storage stability [2] | Relative activity after heat incubation ([3]; 80° C., after three hours of incubation) | Relative activity after heat incubation ([3]; 90° C., after 1 hour of incubation) | Thermal stability ([3]; temperatures up to 70° C. for 6 hours) | Specific Activity [4] | Feruloyl esterase activity (hydrolysis of FAXX) of construct expressed in E. coli ([1]; listed as XynZ UD) | Removal of feruloyl esterase activity by Avicel and acid swollen cellulose adsorption (cellulose binding) [5] | Km [6] | Vmax [6]
1 | B1 | inactive | – | – | – | – | – | – | – | – | –
2 | B2 | exhibited feruloyl esterase activity | stable for at least a month | around 50% | most of the relative activity was destroyed | stable | 26.6 U/mg | high levels of feruloyl esterase activity | not | 10.5 mM | 28.2 μmol ferulic acid released min-1 mg-1
3 | B3 | exhibited feruloyl esterase activity | – | – | – | – | – | – | – | – | –
